Measurements published in US20130323263A1, “SPARC ANGIOGENIC DOMAIN AND METHODS OF USE” (ABRAXIS BIOSCIENCE, LLC, priority 2010, published 2013).

Experiments:
[1] = system: HUVEC; assay: HUVEC (3-D) tube formation assay; format: cell-based; conditions: for angiogenic activity: FIG. 2
Procedure: (§1) Recombinant human SPARC and genetically engineered variants were expressed and purified using HEK 293 cells maintained in hollow fiber bio-reactors. The angiogenic activity of rhSPARC and its variants was evaluated using a HUVEC tube formation assay and a HUVEC sprout formation bead assay.
(§2) In the HUVEC tube formation assay, rhSPARC was pro-angiogenic at 10 μg/mL and anti-angiogenic at 100 μg/mL. […] Additional rhSPARC variants with deletions and single/double amino acid substitutions tested in these assays included: Q3 deletion (BIO2), an inversion of the putative angiogenic domain (BIOS), a double K>Q substitution in the proposed angiogenic domain (BIO11), the genetic ablation of the putative catephsin K recognition sites (BIO8), and a proteolytic degradation product of rhSPARC. Terminal amino acid analysis indicated the angiogenic activity is localized to SEQ ID NO: 1.

[2] = system: HUVEC; assay: HUVEC sprout formation bead assay; format: cell-based
Procedure: as §1, §2

B1: rhSPARC: Recombinant human SPARC expressed and purified using HEK 293 cells (protein, UniProt P09486 18-303, looked up)
SPARC: APQQEALPDETEVVEETVAEVTEVSVGANPVQVEVGEFDDGAEETEEEVVAENPCQNHHCKHGKVCELDENNTPMCVCQDPTSCPAPIGEFEKVCSNDNKTFDSSCHFFATKCTLEGTKKGHKLHLDYIGPCKYIPPCLDSELTEFPLRMRDWLKNVLVTLYERDEDNNLLTEKQKLRVKKIHENEKRLEAGDHPVELLARDFEKNYNMYIFPVHWQFGQLDQHPIDGYLSHTELAPLRAPLIPMEHCTTRFFETCDLDNDKYIALDEWAGCFGIKQKDIDKDLVI
With B1 the “angiogenic behavior over concentration” value ([1]; HUVEC 3-D tube formation, concentrations up to 100 ug/ml, FIG. 4) was “increases as the concentration approaches 10 ug/ml and drops off as it approaches 100 ug/ml”, the angiogenic activity ([1]; at 10 μg/mL) was “pro-angiogenic” and the angiogenic activity ([1]; at 100 μg/mL) was “anti-angiogenic”. The “blood vessel maturity on addition of the protein” value [2] was “more mature blood vessels well supported by pericytes”.
